According to article PMC2686270:

Molecular target: 6xHis-SpaK G392A (C-terminal half of SpaK) (Bacillus subtilis)

- autophosphorylation restored by combining the two SpaK mutants, each inactive alone (intermolecular complementation; 32P-ATP, SDS-PAGE and autoradiography, Fig. 5B lane 6) (% of wild type): 25
Substance: 6xHis-SpaK H247Q (C-terminal half of SpaK) (domain or fragment)
